From patent US20140178854A1

How the values were obtained:
[1] = target: gp70 env protein of amphotropic MLV (4070A envelope), on purified viral particles (amphotropic murine leukemia virus (4070A envelope)); assay: ELISA on plate-bound MLV, dilution factor 6250, Exp121-Ana Plate 1
[2] = target: gp70 env protein of amphotropic MLV (4070A envelope), on purified viral particles (amphotropic murine leukemia virus (4070A envelope)); assay: ELISA on plate-bound MLV, dilution factor 31250, Exp072-DTV Plate 1
[3] = target: gp70 env protein of amphotropic MLV (4070A envelope), on purified viral particles (amphotropic murine leukemia virus (4070A envelope)); assay: ELISA on plate-bound MLV, dilution factor 6250, Exp074-DTV Plate 2
[4] = target: gp70 env protein of amphotropic MLV (4070A envelope), on purified viral particles (amphotropic murine leukemia virus (4070A envelope)); assay: ELISA on plate-bound MLV, dilution factor 1250, Exp122-Ana Plate 2
[5] = target: gp70 env protein of amphotropic MLV (4070A envelope), on purified viral particles (amphotropic murine leukemia virus (4070A envelope)); assay: ELISA on plate-bound MLV, dilution factor 31250, Exp073-DTV Plate 2
[6] = target: gp70 env protein of amphotropic MLV (4070A envelope), on purified viral particles (amphotropic murine leukemia virus (4070A envelope)); assay: ELISA on plate-bound MLV, dilution factor 1250, Exp122-Ana Plate 1
[7] = target: gp70 env protein of amphotropic MLV (4070A envelope), on purified viral particles (amphotropic murine leukemia virus (4070A envelope)); assay: ELISA on plate-bound MLV, dilution factor 250, Exp072-DTV Plate 2
[8] = target: gp70 env protein of amphotropic MLV (4070A envelope), on purified viral particles (amphotropic murine leukemia virus (4070A envelope)); assay: ELISA on plate-bound MLV, dilution factor 31250, Exp121-Ana Plate 1
[9] = target: gp70 env protein of amphotropic MLV (4070A envelope), on purified viral particles (amphotropic murine leukemia virus (4070A envelope)); assay: ELISA on plate-bound MLV, dilution factor 50, Exp072-DTV Plate 2
[10] = target: gp70 env protein of amphotropic MLV (4070A envelope), on purified viral particles (amphotropic murine leukemia virus (4070A envelope)); assay: ELISA on plate-bound MLV, dilution factor 10, Exp122-Ana Plate 1
[11] = target: gp70 env protein of amphotropic MLV (4070A envelope), on purified viral particles (amphotropic murine leukemia virus (4070A envelope)); assay: ELISA on plate-bound MLV, dilution factor 50, Exp122-Ana Plate 1
[12] = target: gp70 env protein of amphotropic MLV (4070A envelope), on purified viral particles (amphotropic murine leukemia virus (4070A envelope)); assay: ELISA on plate-bound MLV, dilution factor 6250, Exp122-Ana Plate 1
[13] = target: gp70 env protein of amphotropic MLV (4070A envelope), on purified viral particles (amphotropic murine leukemia virus (4070A envelope)); assay: ELISA on plate-bound MLV, dilution factor 1250, Exp121-Ana Plate 2
[14] = target: gp70 env protein of amphotropic MLV (4070A envelope), on purified viral particles (amphotropic murine leukemia virus (4070A envelope)); assay: ELISA on plate-bound MLV, dilution factor 156250, Exp122-Ana Plate 2
[15] = target: gp70 env protein of amphotropic MLV (4070A envelope), on purified viral particles (amphotropic murine leukemia virus (4070A envelope)); assay: ELISA on plate-bound MLV, dilution factor 781250, Exp073-DTV Plate 2
[16] = target: gp70 env protein of amphotropic MLV (4070A envelope), on purified viral particles (amphotropic murine leukemia virus (4070A envelope)); assay: ELISA on plate-bound MLV, dilution factor 1250, inter-assay mean of six experiments
[17] = target: gp70 env protein of amphotropic MLV (4070A envelope), on purified viral particles (amphotropic murine leukemia virus (4070A envelope)); assay: ELISA on plate-bound MLV, dilution factor 250, Exp125-Ana Plate 2
[18] = target: gp70 env protein of amphotropic MLV (4070A envelope), on purified viral particles (amphotropic murine leukemia virus (4070A envelope)); assay: ELISA on plate-bound MLV, dilution factor 781250, Exp122-Ana Plate 2
[19] = target: gp70 env protein of amphotropic MLV (4070A envelope), on purified viral particles (amphotropic murine leukemia virus (4070A envelope)); assay: ELISA on plate-bound MLV, dilution factor 10, Exp121-Ana Plate 2
[20] = target: gp70 env protein of amphotropic MLV (4070A envelope), on purified viral particles (amphotropic murine leukemia virus (4070A envelope)); assay: ELISA on plate-bound MLV, dilution factor 50, Exp125-Ana Plate 2
[21] = target: gp70 env protein of amphotropic MLV (4070A envelope), on purified viral particles (amphotropic murine leukemia virus (4070A envelope)); assay: ELISA on plate-bound MLV, dilution factor 250, Exp073-DTV Plate 1
[22] = target: gp70 env protein of amphotropic MLV (4070A envelope), on purified viral particles (amphotropic murine leukemia virus (4070A envelope)); assay: ELISA on plate-bound MLV, dilution factor 31250, Exp072-DTV Plate 2
[23] = target: gp70 env protein of amphotropic MLV (4070A envelope), on purified viral particles (amphotropic murine leukemia virus (4070A envelope)); assay: ELISA on plate-bound MLV, dilution factor 10, Exp122-Ana Plate 2
[24] = target: gp70 env protein of amphotropic MLV (4070A envelope), on purified viral particles (amphotropic murine leukemia virus (4070A envelope)); assay: ELISA on plate-bound MLV, dilution factor 10, Exp072-DTV Plate 2
[25] = target: gp70 env protein of amphotropic MLV (4070A envelope), on purified viral particles (amphotropic murine leukemia virus (4070A envelope)); assay: ELISA on plate-bound MLV, dilution factor 50, Exp121-Ana Plate 1
[26] = target: gp70 env protein of amphotropic MLV (4070A envelope), on purified viral particles (amphotropic murine leukemia virus (4070A envelope)); assay: ELISA on plate-bound MLV, dilution factor 156250, Exp121-Ana Plate 2

gp70 env protein of amphotropic MLV (4070A envelope), on purified viral particles (amphotropic murine leukemia virus (4070A envelope)), sequence (P21995 whole entry): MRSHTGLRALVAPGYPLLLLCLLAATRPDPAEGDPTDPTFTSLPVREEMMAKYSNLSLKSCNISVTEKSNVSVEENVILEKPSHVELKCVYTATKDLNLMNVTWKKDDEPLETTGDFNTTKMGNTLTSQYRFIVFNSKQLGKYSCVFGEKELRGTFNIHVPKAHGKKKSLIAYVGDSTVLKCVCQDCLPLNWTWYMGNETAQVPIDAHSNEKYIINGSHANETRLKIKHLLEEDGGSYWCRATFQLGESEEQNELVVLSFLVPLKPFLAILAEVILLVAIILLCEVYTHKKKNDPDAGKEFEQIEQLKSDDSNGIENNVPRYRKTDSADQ

## 83A25 monoclonal antibody (rat IgG2a, anti-gp70)
[1]
  Mean OD: 0.903 OD
[2]
  Mean OD: 0.202 OD
[3]
  Mean OD: 0.699 OD
[4]
  Mean OD: 1.4 OD
[5]
  Mean OD: 0.276 OD
[6]
  Mean OD: 1.48 OD
[7]
  Mean OD: 1.56 OD
[8]
  Mean OD: 0.322 OD
[9]
  Mean OD: 1.86 OD
[10]
  Mean OD: 2.17 OD
[11]
  Mean OD: 2.01 OD
[12]
  Mean OD: 0.64 OD
[13]
  Mean OD: 1.84 OD
[14]
  Mean OD: 0.174 OD
[15]
  Mean OD: 0.11 OD
[16]
  Mean OD (inter-assay mean): 1.53 OD
[17]
  Mean OD: 1.88 OD
[18]
  Mean OD: 0.141 OD
[19]
  Mean OD: 2.65 OD
[20]
  Mean OD: 1.96 OD
[21]
  Mean OD: 2.05 OD
[22]
  Mean OD: 0.21 OD
[23]
  Mean OD: 2.18 OD
[24]
  Mean OD: 2.04 OD
[25]
  Mean OD: 2.43 OD
[26]
  Mean OD: 0.159 OD
